A word on the Kd: it is the constant that tells how readily two partners part at equilibrium.

In this data set the target is MA-MADS5 full length (A) (Musa acuminata (AAA group, Cavendish subgroup, cv. Giant governor)) (UniProt E9NW24). Nature of the data set: EMSA saturation. To be noted: EMSA with 2 ug recombinant protein or 15 ug nuclear extract, buffer by reference to earlier work; circularization pre-incubation: 60 mM KCl, 8 mM HEPES pH 7.9 ….
Sequence of MA-MADS5 full length (A) (Musa acuminata (AAA group, Cavendish subgroup, cv. Giant governor)) (E9NW24 entry or part of it): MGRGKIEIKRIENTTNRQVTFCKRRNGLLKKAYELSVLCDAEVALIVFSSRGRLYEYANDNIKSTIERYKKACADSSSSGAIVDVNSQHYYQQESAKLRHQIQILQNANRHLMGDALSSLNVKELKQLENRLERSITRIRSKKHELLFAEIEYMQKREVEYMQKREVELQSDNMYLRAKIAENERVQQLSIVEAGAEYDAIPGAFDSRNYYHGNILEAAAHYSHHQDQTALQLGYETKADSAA

For the substance c-fos SRE, pAS76 EcoRV fragment, the Kd is 10.6 nM.

The values above are taken from publication PMC3439491.
